Experimental data as given in the supplement of paper PMC7877785.
± gives the uncertainty stated by the source.

Assay: self-splicing fitness, log relative to wild type (ln ratio); higher = more splicing; Tetrahymena group I intron in knt gene, E. coli kanamycin selection, DiMSum; sequences stand for … in CUCUCU…GGAGGGAAAAGUUAUCAGGCAUGCACCUGGUAGCUAGUCUUUAAACCAAUAGAUUGCAUCGGUUUAAAAGGCAAGACCGUCAAAUUGCGGGAAAGGGGUCAACAGCCGUUCAGUACCAAGUCUCAGGGGAAACUUUGAGAUGGCCUUGCAAAGGGUAUGGUAAUAAGCUGACGGACAUGGUCCUAACCACGCAGCCAAGUCCUAAGUCAACAGAUCUUCUGUUGAUAUGGAUGCAGUUCACAGACUAAAUGUCGGUCGGGGAAGAUGUAUUCUUCUCAUAAGAUAUAGUCGGACCUCUCCUUAAUGGGAGCUAGCGGAUGAAGUGAUGCAACACUGGAGCCGCUGGGAACUAAUUUGUAUGCGAAAGUAUAUUGAUUAGUUUUGGAGUACUCGUGGUCG
Outline: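 A randomised library covering all eight P1ex-region intron nucleotides was built with the intron in the knt kanamycin-resistance gene on pET-22b(+) and held in E. coli BL21(DE3). Cells were grown overnight at 37°C or 30°C on LB agar, with or without 25 μg/mL kanamycin, plus 100 μg/mL carbenicillin, 50 μM IPTG and 0.2% rhamnose, and pooled colonies were amplicon-sequenced on an Illumina HiSeq 2500. DiMSum fitness is the error-weighted combination of wild-type-normalised replicate fold changes, kanamycin versus none.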

| Sequence | self-splicing fitness (ln) (30 °C) | self-splicing fitness (ln) (37 °C) |
| --- | --- | --- |
| GAGCAGCAAUAUUACGCUGU | -3.32 ± 0.18 | -2.52 ± 0.19 |
| CGGAAGCAAUAUUACGGUAG | -0.312 ± 0.072 | -0.214 ± 0.096 |
| AACUAGCAAUAUUACGCCCU | 0.324 ± 0.067 | -0.165 ± 0.08 |
| CGCCAGCAAUAUUACGGUGU | -2.27 ± 0.12 | -2.84 ± 0.26 |
| CAAUAGCAAUAUUACGCGCU | -3.61 ± 0.18 | -2.18 ± 0.18 |
| CCUAAGCAAUAUUACGGAAA | – | -2.27 ± 0.27 |
| GGUGAGCAAUAUUACGCGAG | – | -1.97 ± 0.18 |
| AUAAAGCAAUAUUACGGUCG | 0.114 ± 0.059 | -0.114 ± 0.083 |
| AGAUAGCAAUAUUACGUGUU | -2.97 ± 0.13 | -1.1 ± 0.11 |
| UUUGAGCAAUAUUACGUUUU | -3.55 ± 0.19 | -2.65 ± 0.17 |
| CGGUAGCAAUAUUACGGCGU | -2.03 ± 0.14 | -0.594 ± 0.13 |
| AUGAAGCAAUAUUACGUUCU | -0.34 ± 0.076 | 0.201 ± 0.092 |
| GGUCAGCAAUAUUACGGUGU | -1.44 ± 0.15 | 0.00529 ± 0.14 |
| CCCGAGCAAUAUUACGUGAG | -3.58 ± 0.19 | -2.77 ± 0.24 |
| CACUAGCAAUAUUACGAGAG | -3.21 ± 0.2 | -1.73 ± 0.14 |
| GUAGAGCAAUAUUACGACGC | -0.313 ± 0.16 | 0.929 ± 0.22 |
| AACCAGCAAUAUUACGACUG | -3.11 ± 0.15 | -1.83 ± 0.12 |
| CCUUAGCAAUAUUACGAGUG | -1.07 ± 0.082 | 0.122 ± 0.11 |
| GCGAAGCAAUAUUACGCGGG | -2.26 ± 0.16 | -2.72 ± 0.36 |
| UCUAAGCAAUAUUACGCCCU | -2.09 ± 0.24 | -1.78 ± 0.25 |
| ACAUAGCAAUAUUACGAUCC | -1.77 ± 0.15 | -0.941 ± 0.16 |
| GACCAGCAAUAUUACGGAGA | -1.25 ± 0.078 | -0.461 ± 0.088 |

| Sequence | self-splicing fitness (ln) (30 °C) | self-splicing fitness (ln) (37 °C) |
| --- | --- | --- |
| GGGGAGCAAUAUUACGAUGU | -1.64 ± 0.25 | -1.55 ± 0.35 |
| UGGUAGCAAUAUUACGGAGA | – | -1.24 ± 0.2 |
| CUUAAGCAAUAUUACGAAUU | -3.26 ± 0.22 | -0.957 ± 0.17 |
| CAGCAGCAAUAUUACGGGGA | -1.98 ± 0.18 | -2.22 ± 0.19 |
| GAUAAGCAAUAUUACGUAAC | -1.22 ± 0.1 | -0.811 ± 0.16 |
| UUCCAGCAAUAUUACGGCCG | -2.49 ± 0.29 | -0.492 ± 0.24 |
| UAUCAGCAAUAUUACGCCUC | – | -1.96 ± 0.47 |
| UCGAAGCAAUAUUACGGAAU | -3.57 ± 0.24 | -1.91 ± 0.23 |
| UCUAAGCAAUAUUACGAGGC | -2.85 ± 0.31 | -2.58 ± 0.38 |
| CGAGAGCAAUAUUACGCGUC | -3.01 ± 0.36 | -2.64 ± 0.42 |
| GGUCAGCAAUAUUACGCGUC | -1.46 ± 0.17 | 0.149 ± 0.19 |
| UGCCAGCAAUAUUACGCACC | -2.19 ± 0.28 | -1.32 ± 0.35 |
| AUGAAGCAAUAUUACGCACC | -0.272 ± 0.097 | 0.751 ± 0.18 |
| AGCGAGCAAUAUUACGGACG | – | -1.9 ± 0.36 |
| GAUGAGCAAUAUUACGCGAC | -1.69 ± 0.17 | -0.921 ± 0.15 |
| AGCGAGCAAUAUUACGCAGA | -2.67 ± 0.24 | -2.88 ± 0.24 |
| CAGUAGCAAUAUUACGGUGU | -3.63 ± 0.3 | -0.678 ± 0.15 |
| GUUGAGCAAUAUUACGAAUA | -1.6 ± 0.16 | -1.44 ± 0.18 |
| ACAUAGCAAUAUUACGCAUC | -3.98 ± 0.34 | -1.3 ± 0.14 |
| GUUCAGCAAUAUUACGUCGU | -0.64 ± 0.098 | 0.241 ± 0.11 |
| ACAAAGCAAUAUUACGAACG | -1.1 ± 0.084 | 0.144 ± 0.093 |
